Laboratory results from the DeepSol protein solubility set.

experiment: soluble on expression in E. coli; label from the status in PepcDB or PDB records

With “MRGSHHHHHHGSSQVADKDDPTNKFYQSVIQLGNGFLDVFTSFGGLVAEAFGFKSDPKKSDVKTYFTTVAAKLEKTKTDLNSLPKEKSDISSTTGKPDSTGSVGTAVEGAIKEVSELLDKLVKAVKTAEGASSGTAAIGEVVADADAAKVADKASVKGIAKGIKEIVEAAGGSEKLKAVAAAKGENNKGAGKLFGKAGAAAHGDSEAASKAAGAVSAVSGEQILSAIVTAADAAEQDGKKPEEAKNPIAAAIGDKDGGAEFGQDEMKKDDQIAAAIALRGMAKDGKFAVKDGEKEKAEGAIKGAAESAVRKVLGAITGLIGDAVSSGLRKVGDSVKAASKETPPALNK” as the sequence, how does the “soluble on expression in E. coli” value read?
The value was “soluble”.

With “MRGSHHHHHHTDPALRAMRLVQLSRHSIAFPSPEGALREPNGLLALGGDLSPARLLMAYQRGIFPWFSPGDPILWWSPDPRAVLWPESLHISRSMKRFHKRSPYRVTMNYAFGQVIEGCASDREEGTWITRGVVEAYHRLHELGHAHSIEVWREDELVGGMYGVAQGTLFCGESMFSRMENASKTALLVFCEEFIGHGGKLIDCQVLNDHTASLGACEIPRRDYLNYLNQMRLGRLPNNFWVPRCLFSPQEGLCGR” as the sequence, how does the “soluble on expression in E. coli” value read?
Its value is “soluble”.

With “MRHALITAGTKGLGKQVTEKLLAKGYSVTVTYHSDITAMKKMKETYKNMEERLQFVQADVTKKEDLHKIVEEAISRFGKIDFLINNAGPYVFERKKLVDYEEDEWNEMIQGNLTAVFHLLKLVVPIMRKQNFGRIINYGFQGADSAPGWIYRSAFAAAKVGLVSLTKTVAYEEAEYGITANMVCPGDIIGEMKEATIQEARQLKERNTPIGRSGTGEDIARTISFLCEEDSDMITGTIIEVTGAVDVIHRHR” as the sequence, how does the “soluble on expression in E. coli” value read?
Its value is “not soluble”.

Which “soluble on expression in E. coli” value does the source give for “MRIEAHQVFNVSIQLCEFFNVDLSDRGYYQIRLRPRKTAEIGSVDISHDTEGDRDTGPKTSSNILLAHVYQGAAVSKTVEVTYQHEKFNLDDWFHISVQFNSTLNLCEPQKLEIEIELLYMDRYHPPQYESFVKITKRIVEIPLDPTRLVAAARSLYFDSTYLSAITMSVFSSLVMVATRQRKANASESASSTKSTKLRRVYNSSAHALLFATRSIQQFIVNNSRLINASVSVVVLDVQTEMKAALQQFDSSDHPTRCVETDVCEWSTKITLIYQQMLILFRKSKELNQQLLLIFDKQRRAVFREAFWINERPIDKCLIRTPVSVLEHYKSIIKVDYLRKLPRCTIFCEETDCPGEFCPIIFEDVFTRNSVGLLDLNNANRQVTIPNSASMPVVKAHEKHKSFREKLRNETRKLIHPRRKSLDCSQSLSRKLDGGVTSRSRTKTLKETTSTDGGGGLLLKNIPNSQENNFSPEFPGPSRDTATESPSCSSEPIASPSPSSEFGRCSAAGELFQDDGIPLISKESVTSEEIANALRTSVSADDVLSCRVTSSTDMKLTEEHPKDRMAEFELLREREAAKKMLRQQTNYEGHLYSEQSGRSTAGPVCTPIKSSLVIGDPVVRSKNKTHLVVFVHGLEGSQEDLVPFRCGLDQAIAAHYHCIQMEGRDFDEEPWAFEYLMSSANRSQTWADITTMAHNLLSEVREYVEEARNDIQRISFLAHSLGGVIVRSAVGLAPEVEMQWMIDRCYTLMTINSPHLGLAYVQKHIHWGVQFVKWWKKSRSMEQLSFRDSVDFASSFVYKTSLNNACGKFKNILLVGTPHDQLVPYMSSLLVPSKISSEDQSQFGEAYREMMTACLSSIQNSEKSENLVRYTTFHQLGSSNTQKITGRAAHVIALEDSVFIEKLFNISAVRYFV” here?
Its value is “not soluble”.

For “MRIGHGFDVHAFGGEGPIIIGGVRIPYEKGLLAHSDGDVALHALTDALLGAAALGDIGKLFPDTDPAFKGADSRELLREAWRRIQAKGYTLGNVDVTIIAQAPKMLPHIPQMRVFIAEDLGCHMDEVNVKATTTEKLGFTGRGEGIACEAVALLMKAAK”, which “soluble on expression in E. coli” value is on record?
Its value is “not soluble”.

With “MRIHNDKNDHGDNNEIMDYILEKYKPLVRKKTNALYLIGGENDDLIQEGMIGLFKAVRDYKSDKEASFYSFAQLCITRQLSSALEASNRKKHMPLNTYISFSQSDSDGTEFEEMLQDDIASPEQLLIEKEKFKEFKEQLWNKLSNMEKKVLQLYLEGNNYTSIAHMLGKSDKSIDNALSRIRQKLKRK” as the sequence, how does the “soluble on expression in E. coli” value read?
The value was “not soluble”.

Which “soluble on expression in E. coli” value does the source give for “MRIHRRIKIKQKSVRIFIFDTKHRINDTKRQEDDEPHGLSALHFASRRPTCCACWMRRKKESTTTKVCVQDDCTTCSCTSASRCSRCSPCCSGCCSCTS” here?
Its value is “not soluble”.

With “MRIKLIIVEGKTDESFFKVLLEKLYGFREAKKLTPEFPIGKWGFRIGEHPLVLEKDNIALVIIHAEGKQRIPKVLKSVLDSVKLGLLNVEEVYVVRDVDEGNDVFEWVLSFLREREVRVDNGAIVTEGVKIYPYGMGNLTLNEPFVKEKKELELSLAYLAKLDGILEKYRGSMRALSQDKGDKLTPKDVMHILSIANDYTGDCLSGLYEKYIGIMIHRNRELLIRFLSEVNLLPLLERMVG” as the sequence, how does the “soluble on expression in E. coli” value read?
The value was “soluble”.

Which “soluble on expression in E. coli” value does the source give for “MRIPFPSIKYPLIAILRGLKPEETEGVVGALIETGFRAIEIPLNSPDPFRSIEIAARMAPADCLIGAGTVLSVEDVASLDAAGGKLMVSPNADAEVITAAREKGMVTMPGVLTPTEALVAAKAGATGLKFFPASIIGPSGINAIRTILPKELIIAAVGGVSDKNFSDYTSAGIRAFGLGTSLYKPGMTAAEVRERATVTLAAYDAAIGG” here?
Its value is “not soluble”.

With “MRIRRRDEKENQEYKKGLWTVEEDNILMDYVLNHGTGQWNRIVRKTGLKRCGKSCRLRWMNYLSPNVNKGNFTEQEEDLIIRLHKLLGNRWSLIAKRVPGRTDNQVKNYWNTHLSKKLVGDYSSAVKTTGEDDDSPPSLFITAATPSSCHHQQENIYENIAKSFNGVVSASYEDKPKQELAQKDVLMATTNDPSHYYGNNALWVHDDDFELSSLVMMNFASGDVEYCL” as the sequence, how does the “soluble on expression in E. coli” value read?
The value was “not soluble”.

Which “soluble on expression in E. coli” value does the source give for “MRISKMLVTELNIYPLKSARGIALKESAVSAEGLPGDRRAMLTDPSGHFITQRELPAIATVLARHEDGGMALSRERSGEIFARPSGQRMDVAVWKSIVSANIADDETNDTLSAWLGREVKLVFFDDAAKRIASLEWTGNETPVTFADGYQILVTTTASLAALNDNMRGNGEDAVGMERFRPNIVLETEEAWAEDRWAAIEIGGIRFDLVKPCARCIMTTQDQMTGSRDVPSPMKAMGRIRMSGDRRVPGPLFGWNVTPRGEGRLSVGDVARVVEERPEGWAIKRR” here?
The value was “soluble”.

For “MRIVPFGAAREVTGSAHLLLAGGRRVLLDCGMFQGKEEARNHAPFGFDPKEVDAVLLTHAHLDHVGRLPKLFREGYRGPVYATRATVLLMEIVLEDALKVMDEPFFGPEDVEEALGHLRPLEYGEWLRLGALSLAFGQAGHLPGSAFVVAQGEGRTLVYSGDLGNREKDVLPDPSLPPLADLVLAEGTYGDRPHRPYRETVREFLEILEKTLSQGGKVLIPTFAVERAQEILYVLYTHGHRLPRAPIYLDSPMAGRVLSLYPRLVRYFSEEVQAHFLQGKNPFRPAGLEVVEHTEASKALNRAPGPMVVLAGSGMLAGGRILHHLKHGLSDPRNALVFVGYQPQGGLGAEIIARPPAVRILGEEVPLRASVHTLGGFSGHAGQDELLDWLQGEPRVVLVHGEEEKLLALGKLLALRGQEVSLARFGEGVPV”, which “soluble on expression in E. coli” value is on record?
Its value is “soluble”.

Which “soluble on expression in E. coli” value does the source give for “MRKIGIIGGTFDPPHYGHLLIANEVYHALNLEEVWFLPNQIPPHKQGRNITSVESRLQMLELATEAEEHFSICLEELSRKGPSYTYDTMLQLTKKYPDVQFHFIIGGDMVEYLPKWYNIEALLDLVTFVGVARPGYKLRTPYPITTVEIPEFAVSSSLLRERYKEKKTCKYLLPEKVQVYIERNGLYESLAAALEHHHHHH” here?
Its value is “soluble”.

For “MRKLKYHEKKLIKKVNFLEWKREGNHRENEITYRYHMGSRDDYKKYSGLCRMVQKLTNIMKQMDPADPFRIQMTDMLLEKLYNMGVIPTRKSLTLTERLSVSSFCRRRLSTVLVHLKFAEHHKEAVTYIEQGHVRVGPETITDPAFLVTRNMEDFITWVDSSKIKRKVLEYNDTLDDYDMLA”, which “soluble on expression in E. coli” value is on record?
Its value is “not soluble”.

With “MRKLTALFVASTLALGAANLAHAADTTTAAPADAKPMMHHKGKFGPHQDMMFKDLNLTDAQKQQIHEIMKGQRDQMKRPPLEERRAMHDIIASDTFDKAKAEAQIAKMEEQRKANMLAHMETQNKIYNILTPEQKKQFNANFEKRLTERPAAKGKMPATAELEHHHHHH” as the sequence, how does the “soluble on expression in E. coli” value read?
Its value is “soluble”.

For “MRKMMRQSLQAVLPEISGNKTSLLRKSVCSDLLTLFNSPHSALPSLLVSGMPEWQVHNPSDKHLQSWYCRQLRSALLFHEPRIAALQVNLKEAYCHTLAISLEIMLYHDDEPLTFDLVWDNGGWRSATLENVS”, which “soluble on expression in E. coli” value is on record?
Its value is “not soluble”.

For “MRKQNRPNQTARKQMQNLTVELFARDKNARRQLLNVALTATPPPSVEPSSPTRPSEPIPPPLPEPIPELVQILLAAEPNKPSVPKRSNRKKLTYKQPPRNSTPQVPKVAVTLPVPEPVPEPVPEPVPESTPEPISEPLPVVQEEPASDSLTVQDEQIAQAEPAVEPEEPVVVEHVEVVTASEDPTLESSPPSEPPLLTTPTTPIEDPEPYVTPPPLQRVPYKAQLTHLANIRAVTESMNIAAIPAHHQQHQPQEPMSFAACVRKQPSIESMSVSPSPYAKFDGKTSPFNVGGFSNPGGFGGFSRLDPSKNVNPFANRKRFNYDYDSLPRDSQSSSRFMDRSDLSDGFSPFNSKPNGFTNRVIPRESASSGMLPSWYKGRSFSAASSHYPYSQRSTSTGHFSSFSRPSQSTSMNIPSHGHVEELDGFLAASGQTNPFFKRTDLNMKKERWAKIKAKKRMLRRPVEDQFYEDPDIEEEILHGNGVMLNQIVQQSSAGNYEDADLLRKYRRDVAFVKERVLNAIDGNIDGIRDLRFLLASVQTYGNIDGECMLAEMAMNEFSLFSGIVEKFHAIVGPWMPESESHRRRASRHALETHRIPLQNNFATITKKRLVEEILGRVEPSIACHQGVKVGLYSDACNEKTKIDLNIKNNFKDPGMLCDKNDRRFILVLQSELDLMVDSMKHLANNVGFHYDGFPVTPNCFVIVEAFVEAISDIMNEKIDVETMRWFSLLGQKVDAEDSVSPWETGTDFHCARHSEPKSNFCASVTVGRTCCIVYHVIGSFFRRYHLKKIPTAHQPSSSNSVQ”, which “soluble on expression in E. coli” value is on record?
Its value is “not soluble”.

For “MRKTLIALMFAAALPTVAMAMPEGHGPMGPMDGPRHSEHMRGKGPFSQLDLSREQRQQIGKLMGEQMHDRKAVVEKYLEKLSPADQKAMKDELTAKHQKTQADIRALLKPEQQKEFDTIVKKQEERRAEWAEFKAWKAQQPQKAQLEHHHHHH”, which “soluble on expression in E. coli” value is on record?
Its value is “soluble”.

Which “soluble on expression in E. coli” value does the source give for “MRLDLSAKFRQVLGLAKDHASIGRAIVQNYNEKAFFDIEVAVVRATSHDDCPVDDKTMHEILFLVSNTPGSIPFLAEQISRRLAKTRDCLVAGKTLLLFHRLLRGSSRSIEQQLHIAHTSGHLQIGCSWFMMSLDSRSFVFLQNYVAYLQERVGWIINQAGKLEPVMSGGTKFSRYKEKSMDLVFHILPKCQEFIAQVLKCSPVDAWPIDNLVQAATGNILKESFQVYMTYSDGMTALVSMLFDLSRPARDLACGMLRKASQQIQDLRILYDKCRGFAGMKSLDYPSVQAISMDHIVALEECSSYGGKRGFSLSTNLRDAITCNELKQEQHSASFSSTSPFSLPVETKISMVWVVFDNEDGEESDKQTEKAYER” here?
Its value is “soluble”.

Which “soluble on expression in E. coli” value does the source give for “MRLEVLCEDRLGLTRELLDILASKSIDLRGIEIDISGIIYLNCPDIDFDTFSELMAEIRRIPGVKDVRKIQFMPMERHNTELLSLVDNLPDPVFAIDLKGAVDMANMSALSLLGLHKQEVIGTQIGALLPSVRFSRWSEGVNARTRENLVIDGLDYILELMPVYIRDEAQNSTLASTLMTIRTSQHGTQIE” here?
Its value is “not soluble”.

Which “soluble on expression in E. coli” value does the source give for “MRLEYRLNDETKGYPALWNYANISNSEIIARMTCEYFIKEKNTYVVTATSVDPDGTAVIYIQKEVFANDPSDPTYSYIGFEIRELSETSSNIVDSQDVWNYEEILPSLHSDIIYIQRDGMSMEFSLDSREIDEDRKCYIYYGNFTGESR” here?
The value was “soluble”.

For “MRLFECGTLVPGCAWHTRADDDAEVVRRTVDHMRSAHGETIIRENMIENIKSRIRDEANAA”, which “soluble on expression in E. coli” value is on record?
Its value is “not soluble”.
